In the supplement of paper PMC11246515:
± gives the standard deviation of the averaged measurements.

Experiment: total protein half-life in vivo (active degradation + dilution); higher = more stable protein
[1] = E. coli NCM3722 delta-clpP delta-lon delta-hslV, growth: N-lim chemostat, doubling time 6 h
[2] = E. coli NCM3722 delta-clpP, growth: N-lim chemostat, doubling time 6 h
[3] = E. coli NCM3722 delta-hslV, growth: N-lim chemostat, doubling time 6 h
[4] = E. coli NCM3722 delta-smpB, growth: N-lim chemostat, doubling time 6 h
[5] = wild type E. coli NCM3722, growth: C-lim chemostat, doubling time 3 h
[6] = wild type E. coli NCM3722, growth: C-lim chemostat, doubling time 6 h
[7] = wild type E. coli NCM3722, growth: C-lim chemostat, doubling time 12 h
[8] = wild type E. coli NCM3722, growth: N-lim chemostat, doubling time 6 h
[9] = wild type E. coli NCM3722, growth: P-lim chemostat, doubling time 6 h
[10] = wild type E. coli NCM3722, growth: P-lim chemostat, doubling time 12 h
[11] = E. coli NCM3722 delta-lon, growth: N-lim chemostat, doubling time 6 h
[12] = wild type E. coli NCM3722, growth: N-lim chemostat, doubling time 12 h

Sequence | total protein half-life in vivo [1] [h] | total protein half-life in vivo [2] [h] | total protein half-life in vivo [3] [h] | total protein half-life in vivo [4] [h] | total protein half-life in vivo [5] [h] | total protein half-life in vivo [6] [h] | total protein half-life in vivo [7] [h] | total protein half-life in vivo [8] [h] | total protein half-life in vivo [9] [h] | total protein half-life in vivo [10] [h] | total protein half-life in vivo [11] [h] | total protein half-life in vivo [12] [h]
MAFRMSEQPRTIKIYNLLAGTNEFIGEGDAYIPPHTGLPANSTDIAPPDIPAGFVAVFNSDESSWHLVEDHRGKTVYDVASGNALFISELGPLPENVTWLSPEGEFQKWNGTAWVKDTEAEKLFRIREAEETKNNLMQVASEHIAPLQDAADLEIATEEEISLLEAWKKYRVLLNRVDTSTAQDIEWPALP | 3.03 | 2.56 | 1.99 | 1.99 | 1.9 | 2.42 ± 0.94 | 5.44 | 3.48 | 3.08 | 7.47 ± 0.83 | – | –
MAFSQAVSGLNAAATNLDVIGNNIANSATYGFKSGTASFADMFAGSKVGLGVKVAGITQDFTDGTTTNTGRGLDVAISQNGFFRLVDSNGSVFYSRNGQFKLDENRNLVNMQGLQLTGYPATGTPPTIQQGANPTNISIPNTLMAAKTTTTASMQINLNSSDPLPTVTPFSASNADSYNKKGSVTVFDSQGNAHDMSVYFVKTGDNNWQVYTQDSSDPNSIAKTATTLEFNANGTLVDGAMANNIATGAINGAEPATFSLSFLNSMQQNTGANNIVATTQNGYKPGDLVSYQINDDGTVVGNYSNEQTQLLGQIVLANFANNEGLASEGDNVWSATQSSGVALLGTAGTGNFGTLTNGALEASNVDLSKELVNMIVAQRNYQSNAQTIKTQDQILNTLVNLR | 3.24 ± 0.9 | 7.78 | – | > 8 | 1.2 ± 0.066 | 2.23 ± 0.38 | 3.51 ± 0.74 | – | – | – | – | –
MAFTPFPPRQPTASARLPLTLMTLDDWALATITGADSEKYMQGQVTADVSQMAEDQHLLAAHCDAKGKMWSNLRLFRDGDGFAWIERRSVREPQLTELKKYAVFSKVTIAPDDERVLLGVAGFQARAALANLFSELPSKEKQVVKEGATTLLWFEHPAERFLIVTDEATANMLTDKLRGEAELNNSQQWLALNIEAGFPVIDAANSGQFIPQATNLQALGGISFKKGCYTGQEMVARAKFRGANKRALWLLAGSASRLPEAGEDLELKMGENWRRTGTVLAAVKLEDGQVVVQVVMNNDMEPDSIFRVRDDANTLHIEPLPYSLEE [P0ADE8] | 5.041 ± 0.022 | 4.7 ± 0.35 | 5.202 ± 0.032 | 4.327 ± 0.0059 | 2.8172 ± 0.0011 | 5.45 ± 0.19 | 9.03 ± 1.1 | 5.25 ± 0.67 | 5.54 ± 0.069 | 11.3 ± 1.9 | 5.31 ± 0.23 | 7.936 ± 0.018
MAGKTMIPLLAFAAWSGTGKTTLLKKLIPALCARGIRPGLIKHTHHDMDVDKPGKDSYELRKAGAAQTIVASQQRWALMTETPDEEELDLQFLASRMDTSKLDLILVEGFKHEEIAKIVLFRDGAGHRPEELVIDRHVIAVASDVPLNLDVALLDINDVEGLADFVVEWMQKQNG | 4.44 ± 0.4 | 4.61 | 4.37 ± 0.056 | 3.88 ± 0.7 | 3.22 ± 0.15 | 5.23 ± 0.18 | 9.51 | 4.01 ± 0.23 | 5.85 | 11 ± 0.32 | 4.48 ± 0.64 | 5.54 ± 1.1
MAGWHLDTKMAQDIVARTMRIIDTNINVMDARGRIIGSGDRERIGELHEGALLVLSQGRVVDIDDAVARHLHGVRQGINLPLRLEGEIVGVIGLTGEPENLRKYGELVCMTAEMMLEQSRLMHLLAQDSRLREELVMNLIQAEENTPALTEWAQRLGIDLNQPRVVAIVEVDSGQLGVDSAMAELQQLQNALTTPERNNLVAIVSLTEMVVLKPALNSFGRWDAEDHRKRVEQLITRMKEYGQLRFRVSLGNYFTGPGSIARSYRTAKTTMVVGKQRMPESRCYFYQDLMLPVLLDSLRGDWQANELARPLARLKTMDNNGLLRRTLAAWFRHNVQPLATSKALFIHRNTLEYRLNRISELTGLDLGNFDDRLLLYVALQLDEER | – | – | – | – | 2.67 ± 0.12 | 6.76 | 10.2 ± 3 | – | – | – | – | –
MAHQLKLLKDDFFASDQQAVAVADRYPQDVFAEHTHDFCELVIVWRGNGLHVLNDRPYRITRGDLFYIHADDKHSYASVNDLVLQNIIYCPERLKLNLDWQGAIPGFNASAGQPHWRLGSMGMAQARQVIGQLEHESSQHVPFANEMAELLFGQLVMLLNRHRYTSDSLPPTSSETLLDKLITRLAASLKSPFALDKFCDEASCSERVLRQQFRQQTGMTINQYLRQVRVCHAQYLLQHSRLLISDISTECGFEDSNYFSVVFTRETGMTPSQWRHLNSQKD | – | – | – | – | 1.63 | – | – | – | – | – | – | –
MAIEQTAITRATFDEVILPIYAPAEFIPVKGQGSRIWDQQGKEYVDFAGGIAVTALGHCHPALVNALKTQGETLWHISNVFTNEPALRLGRKLIEATFAERVVFMNSGTEANETAFKLARHYACVRHSPFKTKIIAFHNAFHGRSLFTVSVGGQPKYSDGFGPKPADIIHVPFNDLHAVKAVMDDHTCAVVVEPIQGEGGVTAATPEFLQGLRELCDQHQALLVFDEVQCGMGRTGDLFAYMHYGVTPDILTSAKALGGGFPISAMLTTAEIASAFHPGSHGSTYGGNPLACAVAGAAFDIINTPEVLEGIQAKRQRFVDHLQKIDQQYDVFSDIRGMGLLIGAELKPQYKGRARDFLYAGAEAGVMVLNAGPDVMRFAPSLVVEDADIDEGMQRFAHAVAKVVGA | 5.24 ± 0.26 | 4.41 ± 0.43 | 4.47 ± 0.0086 | 4.4 ± 0.099 | 3.53 ± 0.35 | 6.1 ± 0.17 | 9.18 ± 0.29 | 4.42 ± 0.3 | 5.71 ± 0.09 | 11.36 ± 0.11 | 4.76 ± 0.3 | 7.08 ± 0.24
MAIHNRAGQPAQQSDLINVAQLTAQYYVLKPEAGNAEHAVKFGTSGHRGSAARHSFNEPHILAIAQAIAEERAKNGITGPCYVGKDTHALSEPAFISVLEVLAANGVDVIVQENNGFTPTPAVSNAILVHNKKGGPLADGIVITPSHNPPEDGGIKYNPPNGGPADTNVTKVVEDRANALLADGLKGVKRISLDEAMASGHVKEQDLVQPFVEGLADIVDMAAIQKAGLTLGVDPLGGSGIEYWKRIGEYYNLNLTIVNDQVDQTFRFMHLDKDGAIRMDCSSECAMAGLLALRDKFDLAFANDPDYDRHGIVTPAGLMNPNHYLAVAINYLFQHRPQWGKDVAVGKTLVSSAMIDRVVNDLGRKLVEVPVGFKWFVDGLFDGSFGFGGEESAGASFLRFDGTPWSTDKDGIIMCLLAAEITAVTGKNPQEHYNELAKRFGAPSYNRLQAAATSAQKAALSKLSPEMVSASTLAGDPITARLTAAPGNGASIGGLKVMTDNGWFAARPSGTEDAYKIYCESFLGEEHRKQIEKEAVEIVSEVLKNA | 5.51 ± 0.17 | 5.19 ± 0.29 | 5.82 ± 0.08 | 5.64 ± 0.31 | 2.98 ± 0.16 | – | 9.719 ± 0.083 | 5.2 ± 0.099 | 5.905 ± 0.033 | 11.6 ± 0.12 | 5.31 ± 0.31 | 9.34 ± 0.22
MAIIPKNYARLESGYREKALKIYPWVCGRCSREFVYSNLRELTVHHIDHDHTNNPEDGSNWELLCLYCHDHEHSKYTEADQYGTTVIAGEDAQKDVGEAKYNPFADLKAMMNKKK [P0AAQ2] | 4.15 ± 1.2 | 1.71 ± 0.098 | 1.5 ± 0.031 | 1.63 ± 0.71 | 0.968 ± 0.29 | 1.73 | 2.42 | 1.97 | 1.18 | 3.1 ± 0.97 | 2.74 ± 0.48 | 1.54
